These results are taken from article PMC3117017.

The test deals with Nluc2-H2AX (N-terminal fragment of firefly luciferase 2 fused to the N-terminus of histone H2AX) (UniProt P16104). Kind of test: split reporter.

Regarding “MDC1 BRCT domain fused to the C-terminal fragment of firefly luciferase 2 (Cluc) (domain or fragment)”, the reporter activity, fold above background (within 3 hour of 6 Gy x-rays) was found to be 5 fold.
